Data on 17 sequences can be found in US7989588B2, “Cell permeable peptide” (Osaka University, priority 2005, dated 2011).

The subject of this data set is A431 cells. Nature of the data set: Evaluation of intracellular transfer ability of peptide (cytotoxicity test by PSIF; MTT assay). The data set is classed as cell-based, human. As to conditions: 5 μL culture supernatant containing fusion body of peptide and PSIF, cycloheximide 10 μg/mL, 24 hours, viability of TAT peptide (Tat 48-60)-PSIF group taken as 100%. The method, then: Subsequently, using a fusion body of the peptide and PSIF (protein synthesis inhibitory factor) obtained by recombining each library gene in a PSIF-expressing vector, the intracellular transfer activity of the peptide was evaluated using the cytotoxicity by PSIF as an indicator. […] The screening was performed using a supernatant of the culture of Escherichia coli producing the fusion body of the peptide and PSIF. As a result, it can be confirmed that the clone having the ability to penetrate into the cell is selectively enriched as the panning is repeated. It was successful to yield many clones having a higher introduction efficiency than TAT peptide currently described to be the most excellent in introduction efficiency.
The plasmids collected from the library (input) made and the libraries after the 2nd, 3rd and 4th panning were treated with NcoI (Toyobo Co., Ltd.) and NotI. A plasmid expressing the fusion body of the peptide and PSIF was constructed by incorporating the treated plasmid into PSIF expression vector pY7 (PSIF expression codons had been incorporated into pCantab5e) previously treated with NcoI and NotI using a ligation kit (Takara Shuzo Co., Ltd.). […]; A04646) or Pseudomonas microbial cell exotoxin (GenBank; K01397) (FIG. 6) was utilized.
The plasmid expressing the fusion body of the peptide and PSIF was introduced into TG1 by electroporation, and resulting colonies were randomly picked up into a 96-well plate (NUNC™) and cultured overnight. To a plate in which 100 μL of the 2YT medium containing 50 μg/mL of ampicillin and 2% glucose was newly added, 10 μL of the culture medium cultured overnight was added and cultured until OD600=0.4 to 0.5. The culture was centrifuged at 3,000 rpm for 20 minutes, the supernatant was removed, and 200 μL of the 2YT medium containing 1 mM IPTG (Sigma Aldrich Inc.) and 50 μg/mL of ampicillin was added to the plate, which was then cultured at 37° C. for 12 hours. The culture was centrifuged again at 3,000 rpm for 20 minutes, and the resulting supernatant was subjected to the following screening.
A431 cells diluted at 1.0×10^4 cells/well with Opti-MEM (Invitrogen™ life technologies) were seeded in a 96-well plate, and cycloheximide (Wako Pure Chemical Industries Ltd.) at a final concentration of 10 μg/mL was added thereto. Then, 5 μL of the culture supernatant made according to the above method was added, and the cells were cultured at 37° C. under the saturated vapor pressure and 5% carbon dioxide gas phase for 24 hours. Subsequently, 10 μL/well of 5 mg/mL of MTT (Wako Pure Chemical Industries Ltd.) solution was added, and further cultured at 37° C. for 4 hours. Then, 100 μL/well of 20% SDS (Wako Pure Chemical Industries Ltd., Osaka, Japan)/0.01 N HCl was added and the plate was left stand in a dark place for 4 hours. The intracellular transfer ability of the peptide was evaluated using the cytotoxicity by PSIF introduced into the cells by the peptide as the indicator by measuring absorbance using a microplate reader (Test wave length: 595 nm/Reference wave length: 655 nm). Viability was calculated by making the viability in the group treated with the culture supernatant containing the fusion body of the TAT peptide (Tat 48-60) and PSIF 100%.
Consider “STHLQYHVNYTSRTVVSM [SEQ ID NO 8, cell permeable peptide, tested as fusion body with PSIF]”, for which the Viability entry was “about 60%”.

On to “SPTRPTHQGLLPVSNKYT [SEQ ID NO 13, cell permeable peptide, tested as fusion body with PSIF]”, for which the Viability entry is on record as “about 77%”.

“MSDPNMNPGTLGSSHILW [SEQ ID NO 10, cell permeable peptide, tested as fusion body with PSIF]”: the Viability result is listed as “about 30%”.

Regarding “SGEHTNGPSKTSVRWVWD [SEQ ID NO 6, cell permeable peptide, tested as fusion body with PSIF]”, the Viability result is on record as “about 35%”.

Sequence “GRKKRRQRRRPPQ [SEQ ID NO 17, TAT peptide (Tat 48-60) derived from HIV Tat protein, reference compound]” returned a Viability of 100%.

For “SPGNQSTGVIGTPSFSNH [SEQ ID NO 11, cell permeable peptide, tested as fusion body with PSIF]”, the Viability entry is “about 45%”.

Turning to “STAPGSLQEDILDSVPA [SEQ ID NO 12, cell permeable peptide, tested as fusion body with PSIF]”, the Viability entry is “about 85%”.

With “YSSAYEWFNRYKQPYYEL [SEQ ID NO 14, cell permeable peptide, tested as fusion body with PSIF]”, the Viability result is given as “about 65%”.

Regarding “SSGANYFFNAIYDFLSNF [SEQ ID NO 15, cell permeable peptide, tested as fusion body with PSIF]”, the Viability entry is “about 35%”.

As to “SMTTMEFGHSMITPYKID [SEQ ID NO 7, cell permeable peptide, tested as fusion body with PSIF]”, the Viability result was “about 45%”.

With “GILLRNQVLPPQI [SEQ ID NO 3, cell permeable peptide, tested as fusion body with PSIF]”, the Viability result was “about 65%”.

As for “GLFNWLQLRPPSW [SEQ ID NO 2, cell permeable peptide, tested as fusion body with PSIF]”, the Viability entry is given as “about 80%”.

On to “GTSRANSYDNLKSETLTQ [SEQ ID NO 16, cell permeable peptide, tested as fusion body with PSIF]”, for which the Viability entry is reported as “about 15%”.

With “GSNFFYQHRLPFS [SEQ ID NO 1, cell permeable peptide, tested as fusion body with PSIF]”, the Viability entry was “about 45%”.

With “GIASNGQLPTPKT [SEQ ID NO 5, cell permeable peptide, tested as fusion body with PSIF]”, the Viability entry was “about 35%”.

Turning to “QDGGTWHLVAYCAKSHRY [SEQ ID NO 9, cell permeable peptide, tested as fusion body with PSIF]”, the Viability result was “about 45%”.

With “RRRRNRTRRNRRRVR [SEQ ID NO 4, cell permeable peptide, tested as fusion body with PSIF]”, the Viability entry is given as “about 93%”.
